Laboratory results taken from article PMC4901202, “Sld3-MCM Interaction Facilitated by Dbf4-Dependent Kinase Defines an Essential Step in Eukaryotic DNA Replication Initiation” (Frontiers in Microbiology, 2016).

Molecular target: T1, 6His-Sld3 (budding yeast, UniProt P53135 1-668)
T1 construct: Sld3, budding yeast; Tag end read from the printed order 6His-SLD3; also called pET28a-SLD3; source: E. coli BL21 (DE3) CodonPlus RIL, purified (Ni2+ columns); not shown: 6His, N-terminal, kept
T1 sequence (looked up): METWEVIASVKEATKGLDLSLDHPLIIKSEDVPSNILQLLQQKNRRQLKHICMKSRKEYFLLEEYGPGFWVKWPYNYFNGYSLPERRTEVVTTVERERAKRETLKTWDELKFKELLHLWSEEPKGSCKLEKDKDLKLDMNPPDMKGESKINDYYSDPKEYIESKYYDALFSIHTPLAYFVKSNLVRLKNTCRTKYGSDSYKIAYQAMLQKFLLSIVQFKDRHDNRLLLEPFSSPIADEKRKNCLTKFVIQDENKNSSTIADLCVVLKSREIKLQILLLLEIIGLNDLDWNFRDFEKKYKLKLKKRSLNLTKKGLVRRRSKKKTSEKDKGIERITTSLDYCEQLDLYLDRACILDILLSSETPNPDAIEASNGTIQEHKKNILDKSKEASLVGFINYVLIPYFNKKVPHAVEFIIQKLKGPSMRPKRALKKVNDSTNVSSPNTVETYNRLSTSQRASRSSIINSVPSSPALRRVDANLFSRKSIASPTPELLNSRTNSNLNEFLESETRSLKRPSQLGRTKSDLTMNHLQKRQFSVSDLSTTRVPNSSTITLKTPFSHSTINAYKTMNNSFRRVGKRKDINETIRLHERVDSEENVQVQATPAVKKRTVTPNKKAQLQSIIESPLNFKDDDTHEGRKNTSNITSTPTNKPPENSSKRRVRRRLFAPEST
Test: pull-down; 2 μg 6His-Sld3 and 5 μg GST-Mcm6 or GST-Mcm2 with glutathione-Sepharose beads; 40 mM Tris-HCl pH 7.5, 100 mM NaCl, 0.1 mM EDTA, 10% glycerol, 0.1% Triton X-100, 1 mM DTT, 1 mg/ml BSA; 1 h at 4°C; immunoblots with anti-His and anti-GST
Details: both partners purified

- binding result: binds
B1: GST-Mcm2N (1–390) (domain or fragment, budding yeast, UniProt P29469 1-390, looked up)
chain: MSDNRRRRREEDDSDSENELPPSSPQQHFRGGMNPVSSPIGSPDMINPEGDDNEVDDVPDIDEVEEQMNEVDLMDDNMYEDYAADHNRDRYDPDQVDDREQQELSLSERRRIDAQLNERDRLLRNVAYIDDEDEEQEGAAQLDEMGLPVQRRRRRRQYEDLENSDDDLLSDMDIDPLREELTLESLSNVKANSYSEWITQPNVSRTIARELKSFLLEYTDETGRSVYGARIRTLGEMNSESLEVNYRHLAESKAILALFLAKCPEEMLKIFDLVAMEATELHYPDYARIHSEIHVRISDFPTIYSLRELRESNLSSLVRVTGVVTRRTGVFPQLKYVKFNCLKCGSILGPFFQDSNEEIRISFCTNCKSKGPFRVNGEKTVYRNYQRVTL
notes: Mcm2, budding yeast, residues 1-390; Tag end read from the printed order GST-mcm2(1–390); also called GST-Mcm2 (1–390); pGEX-4T -1-mcm2(1–390); source: E. coli BL21 (DE3) CodonPlus RIL, purified as previously described (Quan et al., 2015); not shown: GST, N-terminal, kept
